Assay results published in article PMC9243137, “Structural and electrophysiological basis for the modulation of KCNQ1 channel currents by ML277” (Nature Communications, 2022).

Columns and labels:
Calmodulin = biological target: T1, Calmodulin (UniProt P0DP23 1-149); experiment: cryo-EM structure; xKCNQ1(67-610) co-expressed with CaM in tsA201 cells, complex purified in DDM/CHS, 0.5 mM CaCl2; grids without and with 100 uM ML277; C4 symmetry imposed; settings: both partners purified
T1 construct: Calmodulin; DNA a gift of the Wayne Chen lab; model built from residues 10 to 146; Sample held 0.5 mM CaCl2; also called CaM; Ca2+/CaM; source: tsA201 cells, co-transfected with xKCNQ1 (pcDNA3), co-purified with xKCNQ1

[1] = biological target: the molecule itself; experiment: as above

binding result (Calmodulin): binds
B1: Xenopus laevis KCNQ1, residues 67-610 (truncated, biochemically stable form) (domain or fragment, UniProt P70057 67-610, looked up)
chain: ATDPPRPTINLDPRVSIYSGRRPLLSRTNIQGRVYNFLERPTGWKCFVYHFTVFLIVLICLIFSVLSTIQQYNNLATETLFWMEIVLVVFFGAEYVVRLWSAGCRSKYVGVWGRLRFARKPISVIDLIVVVASVIVLCVGSNGQVFATSAIRGIRFLQILRMLHVDRQGGTWRLLGSVVFIHRQELITTLYIGFLGLIFSSYFVYLAEKDAIDSSGEYQFGSYADALWWGVVTVTTIGYGDKVPQTWIGKTIASCFSVFAISFFALPAGILGSGFALKVQQKQRQKHFNRQIPAAASLIQTAWRCYAAENPDSATWKIYIRKQSRNHHLMSPSPKPKKSAMVKKKKIRTERDEGSTDKMLNIPHITYDHVADDRKNDGYSVESYENTVRKPFGFLDPSTGPFIRTSSFTDDLDMEGDTLLTPITHISELKEHHRAAIKVIRRMQYFVAKKKFQQARKPYDVRDVIEQYSQGHLNLMVRIKELQRRLDQSLGKPSLFLSVSDKVKDKGINTIGSRLNRVEDKVTQMDHKLNLITDMLHHLLTNQQ
notes: KCNQ1 (Kv7.1) of Xenopus laevis, NP_001116347.1, residues 67-610; N- and C-termini truncated as in Sun and MacKinnon 2017; model built from residues 95 to 556 (67-94, 206-214, 385-496 disordered); Human KCNQ1 numbering is +10 against xKCNQ1; A preScission protease site stood between the channel and the C-terminal GFP-6xHis tag; residues of the site may be left after cleavage; Four subunits (C4 …)
binding result [1]: binds
